We go through 3 molecules from article PMC12687561 (2025).

The target of experiment [1] is T1, HHV-6B Large structural phosphoprotein (U11) peptide on HLA-DRA*01:01 / HLA-DRB1*03:01 (human).
T1 peptide: SLPSISIDTKRPSADL
In words: multimer staining.

Experiment [2] concerns the target T2, HHV-6B Putative OX-2 membrane glycoprotein homolog (U85) peptide on HLA-DRA*01:01 / HLA-DRB1*03:01 (human).
T2 peptide: KINNLDVDSKLYFHIKH
Description: multimer staining.

B1: U11.1 (TCR)
alpha TRAV12-1 TRAJ49 CDR3: CVVNIFTGNQFYF
beta TRBV19 TRBJ1-4 CDR3: CASSFRGGEKLFF
Regarding B1, the binding result in experiment [1] is reported as “recognises”.

B2: U85.1 (TCR)
alpha TRAV13-1 TRAJ29 CDR3: CAASNSGNTPLVF
beta TRBV20-1 TRBJ1-6 CDR3: CGNRVGNSPLHF
Regarding B2, the binding result in experiment [2] is “recognises”.

B3: U85.2 (TCR)
alpha TRAV13-1 TRAJ29 CDR3: CAATNSGNTPLVF
beta TRBV20-1 TRBJ1-5 CDR3: CSARRGGGPQHF
Regarding B3, the binding result in experiment [2] is given as “recognises”.
